Assay results from the Human Domainome abundance scans (Beltran et al. 2025).
± gives the uncertainty stated by the source.

B1: POU domain, class 3, transcription factor 2, residues 356 to 411; numbered along this chain, P20265 (parent)
chain: KKRTSIEVSVKGALESHFLKCPKPSAQEITSLADSLQLEKEVVRVWFCNRRQKEKR

Variants of: B1
Test: abundance fitness (aPCA) (normalised: wild type 0, dead -1); higher = more abundant; growth selection in yeast, the domain comes from the species named
Conditions: Homo sapiens

Row | Variant | abundance fitness
1 | KKRTSIEVSVCGALESHFLKCPKPSAQEITSLADSLQLEKEVVRVWFCNRRQKEKR | -0.264 ± 0.13
2 | KKRTSIEVSVKGALESHFLKCPKPSAQEITSLADSLQLEKEVKRVWFCNRRQKEKR | -0.909 ± 0.3
3 | KKRTSIEVSVKGALESHFLKCPKPSAQEITSTADSLQLEKEVVRVWFCNRRQKEKR | -0.943 ± 0.22
4 | KKRTSIEVSVKGAMESHFLKCPKPSAQEITSLADSLQLEKEVVRVWFCNRRQKEKR | -0.501 ± 0.13
5 | KKRTSIEVSVKGALESHFLKCPKPSAQEITSLADSLQLEKEVVRVWFCNRRQKEKA | -0.335 ± 0.23
6 | KKRTSIEVSVKGASESHFLKCPKPSAQEITSLADSLQLEKEVVRVWFCNRRQKEKR | -0.923 ± 0.11
7 | KKRESIEVSVKGALESHFLKCPKPSAQEITSLADSLQLEKEVVRVWFCNRRQKEKR | 0.17 ± 0.18
8 | KKRTSIEVSVKGALESHFLKCPKPSAQEITSLADSLQLEKEVVRVWFCARRQKEKR | -0.239 ± 0.093
9 | KKRTSIEVSVKVALESHFLKCPKPSAQEITSLADSLQLEKEVVRVWFCNRRQKEKR | 0.22 ± 0.086
10 | KKRTSIEVSVKGALESHFLKCPKPNAQEITSLADSLQLEKEVVRVWFCNRRQKEKR | -0.167 ± 0.21
11 | KKRTSIEVSVKGALESHFLKCPKPSAQEITSLADSLQLEDEVVRVWFCNRRQKEKR | -0.344 ± 0.16
12 | KKRTSDEVSVKGALESHFLKCPKPSAQEITSLADSLQLEKEVVRVWFCNRRQKEKR | -0.072 ± 0.13
13 | KKRTSIEVSVKGALESHFLKCPKPSAQEITSLADSLQLEKEVVRVWFCRRRQKEKR | -0.135 ± 0.065
14 | KKRTSIEVSVKGALESHFLKCPKPSAQEITSLADSLQLEKEVVRVFFCNRRQKEKR | -0.393 ± 0.15
15 | KKRTSIEVSVKGALESHFLKCPKPSAQEITSLAESLQLEKEVVRVWFCNRRQKEKR | -0.023 ± 0.12
16 | KKRTSIEVSVKGALESHFLKCPKPSAQAITSLADSLQLEKEVVRVWFCNRRQKEKR | -0.257 ± 0.088
17 | KKRTSIEVSVKGALESHFLKCPKPSPQEITSLADSLQLEKEVVRVWFCNRRQKEKR | -0.224 ± 0.13
18 | KKRTSIEVSVKGALESVFLKCPKPSAQEITSLADSLQLEKEVVRVWFCNRRQKEKR | -0.287 ± 0.082
19 | KKRTSIEVSVYGALESHFLKCPKPSAQEITSLADSLQLEKEVVRVWFCNRRQKEKR | -0.239 ± 0.25
20 | KKHTSIEVSVKGALESHFLKCPKPSAQEITSLADSLQLEKEVVRVWFCNRRQKEKR | 0.002 ± 0.11
21 | KKRTSIEVSVKPALESHFLKCPKPSAQEITSLADSLQLEKEVVRVWFCNRRQKEKR | -0.152 ± 0.11
22 | KKRTSIEVSVKGALESHFLKCPKPSAQEITSLADWLQLEKEVVRVWFCNRRQKEKR | -0.113 ± 0.11
23 | KKRTSIEVSVKGALESHFLKCCKPSAQEITSLADSLQLEKEVVRVWFCNRRQKEKR | -0.227 ± 0.15
24 | KKRTSIEVSVKGALESHFLKCPKPSAQEITSLADSLQLEKEVVRVWFCNRRQKEWR | -0.187 ± 0.13

Row | Variant | abundance fitness
25 | KKRTSIEVSVKGALESHFLKCPKPSAQEATSLADSLQLEKEVVRVWFCNRRQKEKR | -1.03 ± 0.23
26 | KKRTSIEVSVKGALESHFLKCPAPSAQEITSLADSLQLEKEVVRVWFCNRRQKEKR | -0.135 ± 0.094
27 | KKRTSIEVSVKGALESHFLKCPKPSAQEITSLADSLQLEKEVVRVWFCNRRQKAKR | -0.255 ± 0.12
28 | KKRTSIEVSVKYALESHFLKCPKPSAQEITSLADSLQLEKEVVRVWFCNRRQKEKR | -0.058 ± 0.15
29 | KKRTSIEVSVKGALESHFLKCPKPSAQEITSLADSLQLEKEVPRVWFCNRRQKEKR | -0.891 ± 0.17
30 | KKRTSIEVSVKGALESHFLCCPKPSAQEITSLADSLQLEKEVVRVWFCNRRQKEKR | -0.392 ± 0.11
31 | KKRTSIEVSVKGALESHFLKCPKPSAQEITSLADTLQLEKEVVRVWFCNRRQKEKR | 0.026 ± 0.097
32 | KKRTSIEQSVKGALESHFLKCPKPSAQEITSLADSLQLEKEVVRVWFCNRRQKEKR | 0.069 ± 0.13
33 | KKRTSIEVSVKGALESPFLKCPKPSAQEITSLADSLQLEKEVVRVWFCNRRQKEKR | -1.05 ± 0.25
34 | KKRTSIEVSVKGAFESHFLKCPKPSAQEITSLADSLQLEKEVVRVWFCNRRQKEKR | -0.814 ± 0.22
35 | KKRTSIEVSVKGALESHFLKCPKPSAQEIHSLADSLQLEKEVVRVWFCNRRQKEKR | -0.205 ± 0.15
36 | KKRTSIEVSVKGALESHFLKCPKPSAQEITSLKDSLQLEKEVVRVWFCNRRQKEKR | -0.631 ± 0.17
37 | KKRTSIEVSVKGALESHFLKCPKPSAQEITSLAHSLQLEKEVVRVWFCNRRQKEKR | 0.212 ± 0.15
38 | KKRTSIEVSVKGAEESHFLKCPKPSAQEITSLADSLQLEKEVVRVWFCNRRQKEKR | -0.794 ± 0.23
39 | KKRTSIEVSVKGALESHFLKCPKPSAQEITSLADSLQLEKEVVRVWFCNRRQKFKR | -0.764 ± 0.22
40 | KKRCSIEVSVKGALESHFLKCPKPSAQEITSLADSLQLEKEVVRVWFCNRRQKEKR | -0.287 ± 0.15
41 | KIRTSIEVSVKGALESHFLKCPKPSAQEITSLADSLQLEKEVVRVWFCNRRQKEKR | -0.207 ± 0.21
42 | KKRTSISVSVKGALESHFLKCPKPSAQEITSLADSLQLEKEVVRVWFCNRRQKEKR | 0.191 ± 0.058
43 | KHRTSIEVSVKGALESHFLKCPKPSAQEITSLADSLQLEKEVVRVWFCNRRQKEKR | -0.335 ± 0.47
44 | KKRTSIEVSVKGALESHFLKCPTPSAQEITSLADSLQLEKEVVRVWFCNRRQKEKR | 0.086 ± 0.1
45 | KKRTSIEVSVKGALESHFLKCPKPSGQEITSLADSLQLEKEVVRVWFCNRRQKEKR | -0.141 ± 0.078
46 | KKRTSIEVSVKGALESHFLKDPKPSAQEITSLADSLQLEKEVVRVWFCNRRQKEKR | -0.062 ± 0.16
47 | KKRTSIEVSVKGALESHFLKCPKPSAQEITSLADSLQLEKEVVMVWFCNRRQKEKR | -0.214 ± 0.11
